B1: Fab GS3-NAGLU (other)
light: DIVMTQTPLSLSVTPGQPASISCRSSQSLVHSNGNTYLHWYLQKPGQSPQLLIYKVSNRFSGVPDRFSGSGSGTDFTLKISRVEAEDVGVYYCSQSTHVPWTFGQGTKVEIKRTVAAPSVFIFPPSDEQLKSGTASVVCLLNNFYPREAKVQWKVDNALQSGNSQESVTEQDSKDSTYSLSSTLTLSKADYEKHKVYACEVTHQGLSSPVTKSFNRGEC
heavy: EVQLVQSGAEVKKPGESLKISCKGSGYSFMNYWLGWVRQMPGKGLEWMGDIYPGGDYPTYSEKFKVQVTISADKSISTAYLQLSSLKASDTAMYYCARSGNYDEVAYWGQGTLVTVSSASTKGPSVFPLAPSSKSTSGGTAALGCLVKDYFPEPVTVSWNSGALTSGVHTFPAVLQSSGLYSLSSVVTVPSSSLGTQTYICNVNHKPSNTKVDKKVEPKSCDKTHTGGGGSGGGGSGGGGSDEAREAAAVRALVARLLGPGPAADFSVSVERALAAKPGLDTYSLGGGGAARVRVRGSTGVAAAAGLHRYLRDFCGCHVAWSGSQLRLPRPLPAVPGELTEATPNRYRYYQNVCTQSYSFVWWDWARWEREIDWMALNGINLALAWSGQEAIWQRVYLALGLTQAEINEFFTGPAFLAWGRMGNLHTWDGPLPPSWHIKQLYLQHRVLDQMRSFGMTPVLPAFAGHVPEAVTRVFPQVNVTKMGSWGHFNCSYSCSFLLAPEDPIFPIIGSLFLRELIKEFGTDHIYGADTFNEMQPPSSEPSYLAAATTAVYEAMTAVDTEAVWLLQGWLFQHQPQFWGPAQIRAVLGAVPRGRLLVLDLFAESQPVYTRTASFQGQPFIWCMLHNFGGNHGLFGALEAVNGGPEAARLFPNSTMVGTGMAPEGISQNEVVYSLMAELGWRKDPVPDLAAWVTSFAARRYGVSHPDAGAAWRLLLRSVYNCSGEACRGHNRSPLVRRPSLQMNTSIWYNRSDVFEAWRLLLTSAPSLATSPAFRYDLLDLTRQAVQELVSLYYEEARSAYLSKELASLLRAGGVLAYELLPALDEVLASDSRFLLGSWLEQARAAAVSEAEADFYEQNSRYQLTLWGPEGNILDYANKQLAGLVANYYTPRWRLFLEALVDSVAQGIPFQQHQFDKNVFQLEQAFVLSKQRYPSQPRGDTVDLAKKIFLKYYPRWVAGSW
notes: also called Fab HC-GS3-NAGLU
B2: Fab GS3-GALC (other)
light: DIVMTQTPLSLSVTPGQPASISCRSSQSLVHSNGNTYLHWYLQKPGQSPQLLIYKVSNRFSGVPDRFSGSGSGTDFTLKISRVEAEDVGVYYCSQSTHVPWTFGQGTKVEIKRTVAAPSVFIFPPSDEQLKSGTASVVCLLNNFYPREAKVQWKVDNALQSGNSQESVTEQDSKDSTYSLSSTLTLSKADYEKHKVYACEVTHQGLSSPVTKSFNRGEC
heavy: EVQLVQSGAEVKKPGESLKISCKGSGYSFMNYWLGWVRQMPGKGLEWMGDIYPGGDYPTYSEKFKVQVTISADKSISTAYLQLSSLKASDTAMYYCARSGNYDEVAYWGQGTLVTVSSASTKGPSVFPLAPSSKSTSGGTAALGCLVKDYFPEPVTVSWNSGALTSGVHTFPAVLQSSGLYSLSSVVTVPSSSLGTQTYICNVNHKPSNTKVDKKVEPKSCDKTHTGGGGSGGGGSGGGGSYVLDDSDGLGREFDGIGAVSGGGATSRLLVNYPEPYRSQILDYLFKPNFGASLHILKVEIGGDGQTTDGTEPSHMHYALDENYFRGYEWWLMKEAKKRNPNITLIGLPWSFPGWLGKGFDWPYVNLQLTAYYVVTWIVGAKRYHDLDIDYIGIWNERSYNANYIKILRKMLNYQGLQRVKIIASDNLWESISASMLLDAELFKVVDVIGAHYPGTHSAKDAKLTGKKLWSSEDFSTLNSDMGAGCWGRILNQNYINGYMTSTIAWNLVASYYEQLPYGRCGLMTAQEPWSGHYVVESPVWVSAHTTQFTQPGWYYLKTVGHLEKGGSYVALTDGLGNLTIIIETMSHKHSKCIRPFLPYFNVSQQFATFVLKGSFSEIPELQVWYTKLGKTSERFLFKQLDSLWLLDSDGSFTLSLHEDELFTLTTLTTGRKGSYPLPPKSQPFPSTYKDDFNVDYPFFSEAPNFADQTGVFEYFTNIEDPGEHHFTLRQVLNQRPITWAADASNTISIIGDYNWTNLTIKCDVYIETPDTGGVFIAGRVNKGGILIRSARGIFFWIFANGSYRVTGDLAGWIIYALGRVEVTAKKWYTLTLTIKGHFTSGMLNDKSLWTDIPVNFPKNGWAAIGTHSFEFAQFDNFLVEATR
notes: also called Fab HC-GS3-GALC
B3: Fab GS3-FUCA1 (other)
light: DIVMTQTPLSLSVTPGQPASISCRSSQSLVHSNGNTYLHWYLQKPGQSPQLLIYKVSNRFSGVPDRFSGSGSGTDFTLKISRVEAEDVGVYYCSQSTHVPWTFGQGTKVEIKRTVAAPSVFIFPPSDEQLKSGTASVVCLLNNFYPREAKVQWKVDNALQSGNSQESVTEQDSKDSTYSLSSTLTLSKADYEKHKVYACEVTHQGLSSPVTKSFNRGEC
heavy: EVQLVQSGAEVKKPGESLKISCKGSGYSFMNYWLGWVRQMPGKGLEWMGDIYPGGDYPTYSEKFKVQVTISADKSISTAYLQLSSLKASDTAMYYCARSGNYDEVAYWGQGTLVTVSSASTKGPSVFPLAPSSKSTSGGTAALGCLVKDYFPEPVTVSWNSGALTSGVHTFPAVLQSSGLYSLSSVVTVPSSSLGTQTYICNVNHKPSNTKVDKKVEPKSCDKTHTGGGGSGGGGSGGGGSQPPRRYTPDWPSLDSRPLPAWFDEAKFGVFIHWGVFSVPAWGSEWFWWHWQGEGRPQYQRFMRDNYPPGFSYADFGPQFTARFFHPEEWADLFQAAGAKYVVLTTKHHEGFTNWPSPVSWNWNSKDVGPHRDLVGELGTALRKRNIRYGLYHSLLEWFHPLYLLDKKNGFKTQHFVSAKTMPELYDLVNSYKPDLIWSDGEWECPDTYWNSTNFLSWLYNDSPVKDEVVVNDRWGQNCSCHHGGYYNCEDKFKPQSLPDHKWEMCTSIDKFSWGYRRDMALSDVTEESEIISELVQTVSLGGNYLLNIGPTKDGLIVPIFQERLLAVGKWLSINGEAIYASKPWRVQWEKNTTSVWYTSKGSAVYAIFLHWPENGVLNLESPITTSTTKITMLGIQGDLKWSTDPDKGLFISLPQLPPSAVPAEFAWTIKLTGVK
notes: also called Fab HC-GS3-FUCA1
B4: Fab GS3-GUSB (other)
light: DIVMTQTPLSLSVTPGQPASISCRSSQSLVHSNGNTYLHWYLQKPGQSPQLLIYKVSNRFSGVPDRFSGSGSGTDFTLKISRVEAEDVGVYYCSQSTHVPWTFGQGTKVEIKRTVAAPSVFIFPPSDEQLKSGTASVVCLLNNFYPREAKVQWKVDNALQSGNSQESVTEQDSKDSTYSLSSTLTLSKADYEKHKVYACEVTHQGLSSPVTKSFNRGEC
heavy: EVQLVQSGAEVKKPGESLKISCKGSGYSFMNYWLGWVRQMPGKGLEWMGDIYPGGDYPTYSEKFKVQVTISADKSISTAYLQLSSLKASDTAMYYCARSGNYDEVAYWGQGTLVTVSSASTKGPSVFPLAPSSKSTSGGTAALGCLVKDYFPEPVTVSWNSGALTSGVHTFPAVLQSSGLYSLSSVVTVPSSSLGTQTYICNVNHKPSNTKVDKKVEPKSCDKTHTGGGGSGGGGSGGGGSLQGGMLYPQESPSRECKELDGLWSFRADFSDNRRRGFEEQWYRRPLWESGPTVDMPVPSSFNDISQDWRLRHFVGWVWYEREVILPERWTQDLRTRVVLRIGSAHSYAIVWVNGVDTLEHEGGYLPFEADISNLVQVGPLPSRLRITIAINNTLTPTTLPPGTIQYLTDTSKYPKGYFVQNTYFDFFNYAGLQRSVLLYTTPTTYIDDITVTTSVEQDSGLVNYQISVKGSNLFKLEVRLLDAENKVVANGTGTQGQLKVPGVSLWWPYLMHERPAYLYSLEVQLTAQTSLGPVSDFYTLPVGIRTVAVTKSQFLINGKPFYFHGVNKHEDADIRGKGFDWPLLVKDFNLLRWLGANAFRTSHYPYAEEVMQMCDRYGIVVIDECPGVGLALPQFFNNVSLHHHMQVMEEVVRRDKNHPAVVMWSVANEPASHLESAGYYLKMVIAHTKSLDPSRPVTFVSNSNYAADKGAPYVDVICLNSYYSWYHDYGHLELIQLQLATQFENWYKKYQKPIIQSEYGAETIAGFHQDPPLMFTEEYQKSLLEQYHLGLDQKRRKYVVGELIWNFADFMTEQSPTRVLGNKKGIFTRQRQPKSAAFLLRERYWKIANETRYPHSVAKSQCLENSLFT
notes: also called Fab HC-GS3-GUSB
B5: Fab GS3-AC (other)
light: DIVMTQTPLSLSVTPGQPASISCRSSQSLVHSNGNTYLHWYLQKPGQSPQLLIYKVSNRFSGVPDRFSGSGSGTDFTLKISRVEAEDVGVYYCSQSTHVPWTFGQGTKVEIKRTVAAPSVFIFPPSDEQLKSGTASVVCLLNNFYPREAKVQWKVDNALQSGNSQESVTEQDSKDSTYSLSSTLTLSKADYEKHKVYACEVTHQGLSSPVTKSFNRGEC
heavy: EVQLVQSGAEVKKPGESLKISCKGSGYSFMNYWLGWVRQMPGKGLEWMGDIYPGGDYPTYSEKFKVQVTISADKSISTAYLQLSSLKASDTAMYYCARSGNYDEVAYWGQGTLVTVSSASTKGPSVFPLAPSSKSTSGGTAALGCLVKDYFPEPVTVSWNSGALTSGVHTFPAVLQSSGLYSLSSVVTVPSSSLGTQTYICNVNHKPSNTKVDKKVEPKSCDKTHTGGGGSGGGGSGGGGSQHAPPWTEDCRKSTYPPSGPTYRGAVPWYTINLDLPPYKRWHELMLDKAPVLKVIVNSLKNMINTFVPSGKIMQVVDEKLPGLLGNFPGPFEEEMKGIAAVTDIPLGEIISFNIFYELFTICTSIVAEDKKGHLIHGRNMDFGVFLGWNINNDTWVITEQLKPLTVNLDFQRNNKTVFKASSFAGYVGMLTGFKPGLFSLTLNERFSINGGYLGILEWILGKKDVMWIGFLTRTVLENSTSYEEAKNLLTKTKILAPAYFILGGNQSGEGCVITRDRKESLDVYELDAKQGRWYVVQTNYDRWKHPFFLDDRRTPAKMCLNRTSQENISFETMYDVLSTKPVLNKLTVYTTLIDVTKGQFETYLRDCPDPCIGW
notes: also called Fab HC-GS3-AC

Columns and labels:
[1] = biological target: T1, recombinant human TfR (r human TfR: Sino Biological Inc.), hTfR extracellular region with a histidine tag at … (human, UniProt P02786 89-760); experiment: BLI (Octet RED96), His-tagged TfR ECD on Ni-NTA sensor
T1 construct: Bought from Sino Biological; also called r human TfR-ECD (Histag); recombinant hTfR; not shown: histidine tag at the N-terminus

[2] = biological target: T2, recombinant monkey TfR (r monkey TfR: Sino Biological Inc.), crab-eating monkey TfR extracellular region with … (crab-eating monkey (Macaca fascicularis)); experiment: as above
T2 construct: Bought from Sino Biological; also called r monkey TfR-ECD (Histag); not shown: histidine tag at the N-terminus
T2 chain: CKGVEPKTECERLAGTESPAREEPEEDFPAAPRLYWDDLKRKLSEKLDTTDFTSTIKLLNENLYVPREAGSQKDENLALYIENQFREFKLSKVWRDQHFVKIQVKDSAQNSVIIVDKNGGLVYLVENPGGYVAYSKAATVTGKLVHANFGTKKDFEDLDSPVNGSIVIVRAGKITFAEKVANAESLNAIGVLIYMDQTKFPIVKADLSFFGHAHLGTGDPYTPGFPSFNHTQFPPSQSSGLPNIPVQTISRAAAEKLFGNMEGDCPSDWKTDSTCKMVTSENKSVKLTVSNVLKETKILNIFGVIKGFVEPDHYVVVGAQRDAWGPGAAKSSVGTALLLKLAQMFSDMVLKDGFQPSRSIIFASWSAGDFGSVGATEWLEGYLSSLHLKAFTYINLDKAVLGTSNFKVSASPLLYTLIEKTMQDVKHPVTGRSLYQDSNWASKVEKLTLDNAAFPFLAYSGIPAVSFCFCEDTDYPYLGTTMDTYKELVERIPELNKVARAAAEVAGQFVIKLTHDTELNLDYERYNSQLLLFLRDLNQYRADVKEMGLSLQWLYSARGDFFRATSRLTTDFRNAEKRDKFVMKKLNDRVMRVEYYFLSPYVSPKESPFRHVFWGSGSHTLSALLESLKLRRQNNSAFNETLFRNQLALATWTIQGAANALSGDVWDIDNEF

Binder	Kd [1] [pM]	koff [1] [s⁻¹]	kon [1] [M⁻¹ s⁻¹]	Kd [2] [nM]	koff [2] [s⁻¹]	kon [2] [M⁻¹ s⁻¹]
B1	< 1	< 1e-07	291000	2.62	0.000402	154000
B2	< 1	< 1e-07	224000	1.4	0.000154	111000
B3	< 1	< 1e-07	282000	0.323	4.88e-05	151000
B4	< 1	< 1e-07	449000	< 0.001	< 1e-07	250000
B5	209	0.000105	501000	~11.8	~0.00327	277000

From patent publication US20250026846A1 (JCR PHARMACEUTICALS, published 2025)
